Results on two molecules are retold here after publication PMC9317960 (Biochemical Journal, 2022).

In assay [1] the test system is a wide range of different PDZ domains. As to conditions: cited from earlier work.
Assay [2] concerns the target T1, Human Scribble (SCRIB) PDZ3 domain (1002-1094) (human, UniProt Q14160 1002-1094).
T1 sequence (looked up): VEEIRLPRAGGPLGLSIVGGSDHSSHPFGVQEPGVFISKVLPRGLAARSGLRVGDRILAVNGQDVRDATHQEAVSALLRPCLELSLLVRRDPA
As to the kind of experiment: ITC. As to conditions: both partners purified.

A word on the Kd: it is the equilibrium constant for the complex coming apart. The low end stands for tighter binding, the high end for weaker binding. By stoichiometry N is commonly meant the number of molecules, sites or subunits per partner or assembly.

As to “RSWFETWV [Superpeptide, used as a positive control]”, the “affinity towards PDZ domains, in words” value in assay [1] is recorded as “affinity towards a wide range of different PDZ domains”.

On to LRLESSII [TBEV NS5_CTN peptide (C-terminal PBM of NS5)], for which, in assay [2], the Kd worked out at 18.4 µM, the dH is -1.1 kcal/mol and the “stoichiometry N” value was determined as 1.
